Data taken from publication PMC11912937 (The Journal of Cell Biology, 2025).

Key:
Conditions in all cases: both partners purified
[1] = target: T1, ^MBPCENP-C^EGFP (a full-length CENP-C construct) (human, UniProt Q03188 1-943); experiment: pull-down; amylose resin, MBP-CENP-C fusion proteins (fragments or full-length ^MBPCENP-C^EGFP) as baits, FACT or FACT constructs as preys; 3 µM each; 20 mM Hepes pH 6.8, 300 mM NaCl, 2.5% glycerol, 1 mM TCEP, 0.01% Tween; 4°C
T1 construct: CENP-C; also called ^His-MBPCENP-C^EGFP; source: Tnao38 insect cells (baculovirus), purified (TALON, heparin, SEC); not shown: MBP, N-terminal, kept; EGFP, C-terminal, kept

[2] = target: T2, ^GSTCENP-OPQUR (CENP-OPQUR with CENP-U fused to an N-terminal GST) (human, UniProt Q9BU64 1-300; Q6IPU0 1-288; Q7L2Z9 1-268; Q71F23 1-418; Q13352 1-177); experiment: pull-down; glutathione-agarose, CENP-OPQUR with GST on CENP-U as bait, FACT constructs as preys; 3 µM each; 20 mM Hepes pH 6.8, 300 mM NaCl, 2.5% glycerol, 1 mM TCEP, 0.01% Tween; 4°C
T2 construct: CENP-O; CENP-P; CENP-Q; CENP-U; CENP-R; also called GST-tagged CENP-OPQUR; not shown: GST, N-terminal, kept; copies: + + + +

[3] = target: T3, CCAN, 16-subunit constitutive centromere-associated network reconstituted with CENP-C^2–545 (human, UniProt Q03188 2-545; Q9H3R5 1-247; Q92674 1-756; Q9BS16 1-269; Q9NSP4 1-180; Q8N0S6 …); experiment: pull-down; amylose resin, MBP-tagged FACT (untreated, dephosphorylated, kinase-treated or truncated) as bait, CCAN or CCAN subcomplexes as preys; 3 µM each; 20 mM Hepes pH 6.8, 300 mM NaCl, 2.5% glycerol, 1 mM TCEP, 0.01% Tween; 4°C; SDS-PAGE, Coomassie
T3 construct: CENP-H; CENP-I; CENP-K; CENP-M; CENP-L; CENP-N; CENP-O; CENP-P; CENP-Q; CENP-U; CENP-R; CENP-T; CENP-W; CENP-S; CENP-X; source: recombinant subcomplexes expressed and purified as previously reported, mixed to reconstitute CCAN; copies: + + + + + + + + + + + + + + +

[4] = target: T4, FACT complex (SPT16/SSRP1), full length, untreated (human, UniProt Q9Y5B9 1-1047; Q08945 1-709, phosphorylated as purified from insect cells; residues not printed | phosphorylated as purified from insect cells; residues not given); experiment: pull-down; amylose resin, MBP-CENP-C fusion proteins (fragments or full-length ^MBPCENP-C^EGFP) as baits, FACT or FACT constructs as preys; 3 µM each; 20 mM Hepes pH 6.8, 300 mM NaCl, 2.5% glycerol, 1 mM TCEP, 0.01% Tween; 4°C
T4 construct: SPT16, FACT subunit; SSRP1, FACT subunit; His tags are followed by a TEV site; cleavage is not described; also called FAcilitates Chromatin Transcription complex; full-length FACT; source: Tnao38 insect cells (baculovirus), purified (HisTrap, HiTrap Q, SEC)
T4 sequence (Q9Y5B9 whole entry, the tested form may be a part, one chain of several): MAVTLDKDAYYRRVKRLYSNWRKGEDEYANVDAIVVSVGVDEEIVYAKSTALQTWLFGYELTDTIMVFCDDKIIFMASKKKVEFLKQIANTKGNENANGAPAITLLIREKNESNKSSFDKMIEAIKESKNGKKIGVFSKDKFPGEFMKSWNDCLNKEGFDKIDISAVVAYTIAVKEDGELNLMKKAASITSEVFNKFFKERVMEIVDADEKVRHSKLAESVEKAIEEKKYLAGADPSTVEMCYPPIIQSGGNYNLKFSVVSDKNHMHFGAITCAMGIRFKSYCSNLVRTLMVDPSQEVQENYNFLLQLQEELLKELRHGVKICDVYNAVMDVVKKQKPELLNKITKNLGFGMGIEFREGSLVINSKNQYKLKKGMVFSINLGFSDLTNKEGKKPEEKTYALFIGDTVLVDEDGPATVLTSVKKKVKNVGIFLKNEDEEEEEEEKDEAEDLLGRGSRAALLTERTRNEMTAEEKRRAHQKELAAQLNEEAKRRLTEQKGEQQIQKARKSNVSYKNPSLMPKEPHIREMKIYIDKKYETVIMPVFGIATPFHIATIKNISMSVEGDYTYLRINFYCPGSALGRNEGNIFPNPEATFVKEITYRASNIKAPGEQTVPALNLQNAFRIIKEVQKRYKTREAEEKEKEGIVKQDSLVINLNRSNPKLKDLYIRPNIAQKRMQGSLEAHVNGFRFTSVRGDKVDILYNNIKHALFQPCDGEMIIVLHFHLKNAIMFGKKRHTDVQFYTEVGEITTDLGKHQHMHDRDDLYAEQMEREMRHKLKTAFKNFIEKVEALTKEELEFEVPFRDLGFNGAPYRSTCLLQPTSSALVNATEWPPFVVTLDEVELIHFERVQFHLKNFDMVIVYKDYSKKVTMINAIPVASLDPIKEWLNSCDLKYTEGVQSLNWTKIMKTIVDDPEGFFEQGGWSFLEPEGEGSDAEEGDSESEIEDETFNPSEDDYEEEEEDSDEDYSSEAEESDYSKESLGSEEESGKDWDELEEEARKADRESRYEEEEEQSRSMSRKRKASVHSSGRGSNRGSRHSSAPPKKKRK

T1 sequence (Q03188 whole entry, the tested form may be a part): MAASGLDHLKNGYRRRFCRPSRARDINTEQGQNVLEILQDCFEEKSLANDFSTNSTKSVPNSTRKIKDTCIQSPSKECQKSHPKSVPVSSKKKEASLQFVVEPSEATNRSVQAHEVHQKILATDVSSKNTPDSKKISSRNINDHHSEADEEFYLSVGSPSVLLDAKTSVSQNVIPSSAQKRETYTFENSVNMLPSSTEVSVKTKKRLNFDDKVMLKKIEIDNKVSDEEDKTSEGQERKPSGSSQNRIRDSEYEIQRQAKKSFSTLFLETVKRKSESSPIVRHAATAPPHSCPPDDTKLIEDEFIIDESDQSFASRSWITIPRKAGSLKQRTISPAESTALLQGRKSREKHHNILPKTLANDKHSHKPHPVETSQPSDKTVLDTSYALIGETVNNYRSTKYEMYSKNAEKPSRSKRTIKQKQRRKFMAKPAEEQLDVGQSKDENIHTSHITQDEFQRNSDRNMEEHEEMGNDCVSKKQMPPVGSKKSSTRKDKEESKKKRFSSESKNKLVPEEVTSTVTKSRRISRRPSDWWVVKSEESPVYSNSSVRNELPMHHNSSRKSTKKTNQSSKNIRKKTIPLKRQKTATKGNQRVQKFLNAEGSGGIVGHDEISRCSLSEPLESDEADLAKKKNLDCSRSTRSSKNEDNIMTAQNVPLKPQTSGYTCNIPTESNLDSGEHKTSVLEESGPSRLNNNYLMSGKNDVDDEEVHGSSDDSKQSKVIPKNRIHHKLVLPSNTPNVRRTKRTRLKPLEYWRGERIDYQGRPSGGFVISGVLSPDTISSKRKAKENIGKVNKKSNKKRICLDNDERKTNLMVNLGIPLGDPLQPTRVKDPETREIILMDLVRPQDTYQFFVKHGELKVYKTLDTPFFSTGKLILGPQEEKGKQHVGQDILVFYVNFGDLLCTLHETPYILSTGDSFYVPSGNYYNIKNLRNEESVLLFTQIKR

B1: SPT16^Mid-AID (SPT16^644–988) (domain or fragment, human, UniProt Q9Y5B9 644-988, looked up)
chain: GIVKQDSLVINLNRSNPKLKDLYIRPNIAQKRMQGSLEAHVNGFRFTSVRGDKVDILYNNIKHALFQPCDGEMIIVLHFHLKNAIMFGKKRHTDVQFYTEVGEITTDLGKHQHMHDRDDLYAEQMEREMRHKLKTAFKNFIEKVEALTKEELEFEVPFRDLGFNGAPYRSTCLLQPTSSALVNATEWPPFVVTLDEVELIHFERVQFHLKNFDMVIVYKDYSKKVTMINAIPVASLDPIKEWLNSCDLKYTEGVQSLNWTKIMKTIVDDPEGFFEQGGWSFLEPEGEGSDAEEGDSESEIEDETFNPSEDDYEEEEEDSDEDYSSEAEESDYSKESLGSEEESGK
notes: SPT16, Mid domain and AID segment, residues 644-988; also called construct 3; source: Tnao38 insect cells (baculovirus), purified (HisTrap, HiTrap Q, SEC)
[1]
  binding result: binds

B2: FACT^trunc (SPT16^508–988/SSRP1^1–514) (complex, human)
chain 1: SNVSYKNPSLMPKEPHIREMKIYIDKKYETVIMPVFGIATPFHIATIKNISMSVEGDYTYLRINFYCPGSALGRNEGNIFPNPEATFVKEITYRASNIKAPGEQTVPALNLQNAFRIIKEVQKRYKTREAEEKEKEGIVKQDSLVINLNRSNPKLKDLYIRPNIAQKRMQGSLEAHVNGFRFTSVRGDKVDILYNNIKHALFQPCDGEMIIVLHFHLKNAIMFGKKRHTDVQFYTEVGEITTDLGKHQHMHDRDDLYAEQMEREMRHKLKTAFKNFIEKVEALTKEELEFEVPFRDLGFNGAPYRSTCLLQPTSSALVNATEWPPFVVTLDEVELIHFERVQFHLKNFDMVIVYKDYSKKVTMINAIPVASLDPIKEWLNSCDLKYTEGVQSLNWTKIMKTIVDDPEGFFEQGGWSFLEPEGEGSDAEEGDSESEIEDETFNPSEDDYEEEEEDSDEDYSSEAEESDYSKESLGSEEESGK
chain 2: MAETLEFNDVYQEVKGSMNDGRLRLSRQGIIFKNSKTGKVDNIQAGELTEGIWRRVALGHGLKLLTKNGHVYKYDGFRESEFEKLSDFFKTHYRLELMEKDLCVKGWNWGTVKFGGQLLSFDIGDQPVFEIPLSNVSQCTTGKNEVTLEFHQNDDAEVSLMEVRFYVPPTQEDGVDPVEAFAQNVLSKADVIQATGDAICIFRELQCLTPRGRYDIRIYPTFLHLHGKTFDYKIPYTTVLRLFLLPHKDQRQMFFVISLDPPIKQGQTRYHFLILLFSKDEDISLTLNMNEEEVEKRFEGRLTKNMSGSLYEMVSRVMKALVNRKITVPGNFQGHSGAQCITCSYKASSGLLYPLERGFIYVHKPPVHIRFDEISFVNFARGTTTTRSFDFEIETKQGTQYTFSSIEREEYGKLFDFVNAKKLNIKNRGLKEGMNPSYDEYADSDEDQHDAYLERMKEEGKIREENANDSSDDSGEETDESFNPGEEEEDVAEEFDSNASASSSSNEGDSDRDE
notes: SPT16, residues 508-988; SSRP1, residues 1-514; also called construct 2; source: Tnao38 insect cells (baculovirus), purified (HisTrap, HiTrap Q, SEC)
[2]
  binding result: binds

B3: ^MBPFACT^trunc (MBP-TEV-SPT16^508–988 + His-TEV-SSRP1^1–514) (complex, human)
chain 1: SNVSYKNPSLMPKEPHIREMKIYIDKKYETVIMPVFGIATPFHIATIKNISMSVEGDYTYLRINFYCPGSALGRNEGNIFPNPEATFVKEITYRASNIKAPGEQTVPALNLQNAFRIIKEVQKRYKTREAEEKEKEGIVKQDSLVINLNRSNPKLKDLYIRPNIAQKRMQGSLEAHVNGFRFTSVRGDKVDILYNNIKHALFQPCDGEMIIVLHFHLKNAIMFGKKRHTDVQFYTEVGEITTDLGKHQHMHDRDDLYAEQMEREMRHKLKTAFKNFIEKVEALTKEELEFEVPFRDLGFNGAPYRSTCLLQPTSSALVNATEWPPFVVTLDEVELIHFERVQFHLKNFDMVIVYKDYSKKVTMINAIPVASLDPIKEWLNSCDLKYTEGVQSLNWTKIMKTIVDDPEGFFEQGGWSFLEPEGEGSDAEEGDSESEIEDETFNPSEDDYEEEEEDSDEDYSSEAEESDYSKESLGSEEESGK
chain 2: MAETLEFNDVYQEVKGSMNDGRLRLSRQGIIFKNSKTGKVDNIQAGELTEGIWRRVALGHGLKLLTKNGHVYKYDGFRESEFEKLSDFFKTHYRLELMEKDLCVKGWNWGTVKFGGQLLSFDIGDQPVFEIPLSNVSQCTTGKNEVTLEFHQNDDAEVSLMEVRFYVPPTQEDGVDPVEAFAQNVLSKADVIQATGDAICIFRELQCLTPRGRYDIRIYPTFLHLHGKTFDYKIPYTTVLRLFLLPHKDQRQMFFVISLDPPIKQGQTRYHFLILLFSKDEDISLTLNMNEEEVEKRFEGRLTKNMSGSLYEMVSRVMKALVNRKITVPGNFQGHSGAQCITCSYKASSGLLYPLERGFIYVHKPPVHIRFDEISFVNFARGTTTTRSFDFEIETKQGTQYTFSSIEREEYGKLFDFVNAKKLNIKNRGLKEGMNPSYDEYADSDEDQHDAYLERMKEEGKIREENANDSSDDSGEETDESFNPGEEEEDVAEEFDSNASASSSSNEGDSDRDE
notes: SPT16, residues 508-988; SSRP1, residues 1-514; also called construct 2 with an N-terminal MBP fusion on SPT16; source: Tnao38 insect cells (baculovirus), purified (HisTrap, HiTrap Q, SEC); not shown: MBP, N-terminal, kept
[3]
  binding result: binds

B4: ^MBPCENP-C^721–759-His (domain or fragment, human, UniProt Q03188 721-759, looked up)
chain: KNRIHHKLVLPSNTPNVRRTKRTRLKPLEYWRGERIDYQ
notes: CENP-C, residues 721-759; not shown: MBP, N-terminal, kept
[4]
  binding result: binds

B5: ^MBPCENP-C^546–600-His (domain or fragment, human, UniProt Q03188 546-600, looked up)
chain: VRNELPMHHNSSRKSTKKTNQSSKNIRKKTIPLKRQKTATKGNQRVQKFLNAEGS
notes: CENP-C, residues 546-600; not shown: MBP, N-terminal, kept
[4]
  binding result: binds
